# Test results from PMC4529489.
# What was measured:
# Human Ubc13 R85S (human) = assay: ITC
# Ube2V2 (Homo sapiens) = Ube2V2 (Homo sapiens) (UniProt Q15819); conditions: cited from earlier work
# [1] = molecular target: Human Ubc13, wild type (human); assay: ITC
substance,measurement,setting,value
Human Ube2V2 (natural protein),fold increase of Kd against WT Ubc13,Human Ubc13 R85S (human),> 30 times
Ubc13 (from UniProt P61088),Kd,Ube2V2 (Homo sapiens),50 nM
Human Ube2V2 E20A (natural protein),fold increase of Kd against WT Ube2V2,[1],4 times
